Experiment [1] addresses T1, human gp39 (CD40 ligand), cell-surface (human, UniProt P29965 1-261).
T1 construct: whole, on cells; also called CD154; mgp39
T1 sequence (looked up): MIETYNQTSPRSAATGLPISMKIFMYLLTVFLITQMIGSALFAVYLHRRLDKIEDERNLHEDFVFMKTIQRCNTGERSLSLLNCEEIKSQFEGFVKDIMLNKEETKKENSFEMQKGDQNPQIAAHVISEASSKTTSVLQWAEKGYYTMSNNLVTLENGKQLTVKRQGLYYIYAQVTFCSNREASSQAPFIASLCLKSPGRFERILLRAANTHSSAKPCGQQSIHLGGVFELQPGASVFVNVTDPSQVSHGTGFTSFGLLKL
Kind of experiment: cell-based or functional assay.

The target of experiment [2] is soluble fusion protein of human gp39 (gp39-CD8) (human) (UniProt P29965). Kind of experiment: cell-based or functional assay.
Experiment [3] deals with T1, human gp39 (CD40 ligand), cell-surface. Kind of experiment: Scatchard analysis, 125I-labelled antibody on gp39-CHO cells.

Positions count from the first letter of the chain named.

Turning to “TRAP-1, commercial murine anti-CD40L antibody”, the IL-2 production with immobilized anti-CD3 (10 ng/mL) in experiment [1] was over 4600 pg/mL. Besides, in experiment [2], the IL-2 production with TRAP-1 (30 ng/mL) and a 4:1 molar excess of soluble CD8-CD40L fusion protein was found to be 1500 pg/mL.

B1: humanized 24-31 antibody, version 1 (#1 VL with #1 VH) (antibody, V domains shown)
VH: EVQLQESGPGLVKPSETLSLTCTVSGDSITNGFWIWIRKPPGNKLEYMGYISYSGSTYYNPSLKSRISISRDTSKNQFSLKLSSVTAADTGVYYCACRSYGRTPYYFDFWGQGTTLTVSS
VL: DIVMTQSPSFLSASVGDRVTITCKASQNVITAVAWYQQKPGKSPKLLIYSASNRYTGVPDRFSGSGSGTDFTLTISSLQPEDFADYFCQQYNSYPYTFGGGTKLEIK
notes: also called IDEC131
The Kd is the equilibrium constant for the complex coming apart. Low values mean higher affinity, high ones lower affinity. Take B1: the affinity in experiment [3], expressed as Kd, was 5.6 nM.

B2: murine antibody 24-31 (anti-human gp39 monoclonal antibody) (antibody, V domains shown)
VH: EVQLQESGPSLVKPSQTLSLTCSVTGDSITNGFWIWIRKFPGNKLEYMGYISYSGSTYYNPSLKSRISITRDTSQNQFYLQLNSVTTEDTGTYYCACRSYGRTPYYFDFWGQGTTLTVSS
VL: B1 VL with P8Q, S9K, L11M, A13T, T20S, K42Q, S77N, L78M, P80S, F83L
notes: also called murine 24-31; anti-gp39 24-31 mAb
In turn, B2 returned a Kd in experiment [3] of 8.51 nM.

B3: humanized 24-31 antibody, version 2 (#2 VL with #1 VH) (antibody, V domains shown)
VH: B1 VH
VL: DIVMTQSPDSLAVSLGERATINCKASQNVITAVAWYQQKPGQSPKLLIYSASNRYTGVPDRFSGSGSGTDFTLTISSLQAEDVADYFCQQYNSYPYTFGGGTKLEIK
notes: Built in the N5KG1 vector (human kappa and gamma 1 constant regions); also called humanized 24-31 version 2; humanized Version 2
As for B3, in experiment [3], binding was put at a Kd of 14 nM.

The values above are taken from patent WO2001094586A2 (dated 2001).
